The first assay deals with MHC class II molecule I-Ad (mouse (endogenous in A20 lymphoma cells)). Nature of the assay: radioligand binding.
Conditions: not given
With “OVA peptide 323-339 (unlabeled) (from UniProt P01012 324-340)”, the IC50 (commonly the midpoint of a concentration-inhibition curve) turned out to be 131 nM.

Still in this assay, the particulars now being: scale: relative to unlabeled OVA peptide 323-339.
In turn, “SWM peptide 105-116-[G108] (from UniProt P02185 106-117)” came in with a relative binding to MHC of 0.1.
EFISEAIIHLLH [SWM peptide 105-116-[L114]]: the relative binding to MHC was 0.18.
On the same count and under the same terms, the same measure for EFISEAIIHILH [SWM peptide 105-116-[I114]]: 0.01.
With EFISEAIIPVLH [SWM peptide 105-116-[P113]], the relative binding to MHC was 1.8.
For IKYLEFIGEAII [SWM peptide 101-112-[G108]], the relative binding to MHC turned out to be 0.003.
Same read-out and setting: the same measure for EFISEAIIHVLH [sperm whale myoglobin (SWM) peptide 105-116]: 1.5.
Same read-out and setting: the figure for EFGSEAIIHVLH [SWM peptide 105-116-[G107]] is 0.34.
The same measure, in the same setting: the same measure for YLEFIGEAIIHV [SWM peptide 103-114-[G108]]: 0.04; for KYLEFIGEAIIH [SWM peptide 102-113-[G108]]: 0.011; for AIIHVLHSRHPG [sperm whale myoglobin (SWM) peptide 110-121]: 0.59.
LEFIGEAIIHVL [SWM peptide 104-115-[G108]] displayed a relative binding to MHC of 0.013.
